System: E 17.5 Hippocampal growth cones
Assay: Hippocampal neuronal growth cone collapse assay (Sema3F)
Assay type: cell-based
Details: Anti-Nrp2^B 50 μg/ml; Nrp2 ECD 10 ug/ml
Procedure: FIG. 17. […] (A) Images of E 17.5 Hippocampal growth cones stained with rhodamine conjugated phalloidin. Control growth cones show large actin rich structures at the tip of each axon, which are reduced with Sema3F treatment. […] In contrast, Nrp2 ECD (10 ug/ml) does block this collapse. (B) Quality control for anti-Nrp2 immunohistochemistry. […] This antibody was subsequently used for IHC on fresh frozen tumor sections. (Scale bar main images=**μm and for inset images=**μm.
Then, the ability of Anti-Nrp2^B to modulate semaphorin function was tested. […] Thus, Anti-Nrp2^B acts to block specific aspects of Nrp2 function, inhibiting VEGFC but not VEGF or Sema3F mediated cellular responses.

B1: Nrp2 ECD: Nrp2 extracellular domain protein, positive control for blocking Sema3F (protein, UniProt O60462 21-864, looked up)
extracellular domain: RGQPDPPCGGRLNSKDAGYITSPGYPQDYPSHQNCEWIVYAPEPNQKIVLNFNPHFEIEKHDCKYDFIEIRDGDSESADLLGKHCGNIAPPTIISSGSMLYIKFTSDYARQGAGFSLRYEIFKTGSEDCSKNFTSPNGTIESPGFPEKYPHNLDCTFTILAKPKMEIILQFLIFDLEHDPLQVGEGDCKYDWLDIWDGIPHVGPLIGKYCGTKTPSELRSSTGILSLTFHTDMAVAKDGFSARYYLVHQEPLENFQCNVPLGMESGRIANEQISASSTYSDGRWTPQQSRLHGDDNGWTPNLDSNKEYLQVDLRFLTMLTAIATQGAISRETQNGYYVKSYKLEVSTNGEDWMVYRHGKNHKVFQANNDATEVVLNKLHAPLLTRFVRIRPQTWHSGIALRLELFGCRVTDAPCSNMLGMLSGLIADSQISASSTQEYLWSPSAARLVSSRSGWFPRIPQAQPGEEWLQVDLGTPKTVKGVIIQGARGGDSITAVEARAFVRKFKVSYSLNGKDWEYIQDPRTQQPKLFEGNMHYDTPDIRRFDPIPAQYVRVYPERWSPAGIGMRLEVLGCDWTDSKPTVETLGPTVKSEETTTPYPTEEEATECGENCSFEDDKDLQLPSGFNCNFDFLEEPCGWMYDHAKWLRTTWASSSSPNDRTFPDDRNFLRLQSDSQREGQYARLISPPVHLPRSPVCMEFQYQATGGRGVALQVVREASQESKLLWVIREDQGGEWKHGRIILPSYDMEYQIVFEGVIGKGRSGEIAIDDIRISTDVPLENCMEPISAFAGENFKVDIPEIHEREGYEDEIDDEYEVDWSNSSSATSGSGAPSTDKEKSWLYTLDP
modifications: extracellular domain
  semaphorin (Sema3F) induced growth cone collapse: inhibited this collapse completely

Reference: US8920805B2, “Inhibition of tumor metastasis by anti-neuropilin 2 antibodies” (Genentech, Inc., priority 2007, dated 2014)
